Here are results for one molecule from EP2548892A1 (CSL Behring GmbH, dated 2013).

In assay [1] the target is Human FXIIa beta (human) (UniProt P00748). The assay is described as follows: Biacore, KD against parental 3F7 (the reference itself).
Assay [2] has the same target. The assay is described as follows: Biacore, purified IgG4 captured on anti-human IgG, FXIIa beta injected, 1:1 model. On the technique in general: Surface plasmon resonance follows binding to a sensor surface in real time, without labels.
Assay [3] addresses Human FXIIa (activated Factor XII) (human) (UniProt P00748). The assay is described as follows: cell-based or functional assay.
Assay [4] addresses T1, Human FXII (unactivated Factor XII) (human, UniProt P00748 20-615).
T1 construct: Bought from Enzyme Research Laboratories; also called Hageman factor
T1 sequence: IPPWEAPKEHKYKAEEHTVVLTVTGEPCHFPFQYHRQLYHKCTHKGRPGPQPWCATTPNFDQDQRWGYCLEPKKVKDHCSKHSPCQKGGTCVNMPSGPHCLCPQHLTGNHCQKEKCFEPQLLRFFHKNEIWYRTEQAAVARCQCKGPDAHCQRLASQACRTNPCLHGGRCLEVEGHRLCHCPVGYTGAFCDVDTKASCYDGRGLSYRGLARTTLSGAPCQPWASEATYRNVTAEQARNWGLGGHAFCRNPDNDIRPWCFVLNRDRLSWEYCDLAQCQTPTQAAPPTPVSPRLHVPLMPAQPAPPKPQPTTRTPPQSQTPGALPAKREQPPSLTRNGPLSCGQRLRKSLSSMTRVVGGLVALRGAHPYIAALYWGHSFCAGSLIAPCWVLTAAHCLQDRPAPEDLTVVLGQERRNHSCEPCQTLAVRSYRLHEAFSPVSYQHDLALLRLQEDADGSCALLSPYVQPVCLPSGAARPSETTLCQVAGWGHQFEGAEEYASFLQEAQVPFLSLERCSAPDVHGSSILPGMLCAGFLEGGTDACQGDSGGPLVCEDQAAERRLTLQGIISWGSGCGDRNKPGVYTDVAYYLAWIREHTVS
The assay is described as follows: Biacore, purified IgG captured on anti-human IgG, FXII injected at 0-500 nM, 1:1 model, 25°C.

Assay [5] concerns the target Human FXIIa beta (human) (UniProt P00748). The assay is described as follows: Biacore, purified IgG captured on anti-human IgG, FXIIa beta injected at 0-40 nM, 1:1 model, 25°C.

B1: 3F7 monoclonal antibody (fully human IgG4/lambda) (antibody, V domains shown)
VH: EVQLLESGGGLVQPGGSLRLSCAASGFTFSKYIMQWVRQAPGKGLEWVSGIRPSGGTTVYADSVKGRFTISRDNSKNTLYLQMNSLRAEDTAVYYCARALPRSGYLISPHYYYYALDVWGQGTTVTVSS
VL: QSELTQPPSASGTPGQRVTISCSGSSSNIGRNYVYWYQQVPGTAPKLLIYSNNQRPSGVPDRFSGSKSGTSASLVISGLRSEDEADYYCAAWDASLRGVFGGGTKLTVLG
notes: also called 3F7 mAb; MAb 3F7
As usually defined, the Kd is the constant that tells how readily two partners part at equilibrium. Read a high Kd as a looser complex. A word on the koff: it is the rate constant with which the complex falls apart. In general, kon refers to the rate constant with which the complex forms. A high value points to faster complex formation. Consider B1, for which the Fold affinity improvement with Human FXIIa beta (human) [1] was 1 fold. In the assay with Human FXIIa beta (human) [2], the Kd was 8.6 nM, the koff turned out to be 0.0011 s⁻¹ and the kon turned out to be 120000 M⁻¹ s⁻¹. The potency in FXIIa amidolytic activity assay, against OT2 in assay [3] was 2 fold. For the same molecule, the Kd in assay [4] came to 121 nM. Besides, the Kd with Human FXIIa beta (human) [5] was found to be 6.2 nM.
